Among the data in article doi:10.1101/2023.04.17.536592 are Kd values, retold here.

What is called Kd is the concentration at which binding is half-saturated.

Assay [1] concerns the target Kaposi's Sarcoma Herpesvirus Latency Associated Nuclear Antigen (LANA) peptide (Kaposi's Sarcoma Herpesvirus). As to the kind of experiment: fluorescence polarisation. A general note: Polarisation of emitted light reports the rotation of a fluorescent probe.
Assay [2] addresses H. sapiens nucleosome core particle (NCP) (human). The assay can be described thus: native gel or EMSA. On the technique in general: A gel shift assay detects complexes by their altered migration in electrophoresis.

Kaposi's Sarcoma Herpesvirus Latency Associated Nuclear Antigen (LANA) peptide (Kaposi's Sarcoma Herpesvirus), sequence (Q9QR71 4-23): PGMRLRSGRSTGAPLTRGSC

In the case of “H. sapiens nucleosome core particle (NCP) (complex)”, in assay [1], the Kd came out at 2380 nM.

For the substance “GST-His-TEV-tagged PFV GAG (from UniProt P14349 535-550) (peptide)”, the Kd in assay [2] was found to be 3.5 µM.
